Series [1] deals with the molecule itself. As to the kind of experiment: gel filtration chromatography (self-association). Background: In gel filtration, larger molecules generally elute earlier.
Series [2] concerns the molecule itself. As to the kind of experiment: gel filtration and EM; self-association.
Series [3] deals with the molecule itself. As to the kind of experiment: gel filtration; self-association.
Series [4] concerns the molecule itself. As to the kind of experiment: form of the immunogen as described; self-association.
Series [5] concerns the molecule itself. Nature of the series: gel filtration; self-association. This is another data set of the same source.

B1: Rotavirus VP8* (other)
chain: LDGPYQPTTFTPPTDYWILINSNTNGVVYESTNNSDFWTAVIAVEPHVNPVDRQYNVFGENKQFNVRNDSDKWKFLEMFRGSSQNDFYNRRTLTSDTRLVGILKYGGRIWTFHGETPRATTDSSNTANLNGISITIHSEFYIIPRSQESKCNEYINNGL
notes: ~18 kDa monomer; also called free VP8* monomer
B1: the binding result in series [1] is “no binding”.

B2: NoV P^- (387)-NoV P^- (207) fusion protein (other)
chain: SRTKPFTVPILTVEEMSNSRFPIPLEKLYTGPSSAFVVQPQNGRCTTDGVLLGTTQLSAVNICTFRGDVTHIAGSHDYIMNLASQNWNNYDPTEEIPAPLGTPDFVGKIQGMLTQTTREDGSTRAHKATVSTGSVHFTPKLGSVQYTTDTNNDLQTGQNTKFTPVGVIQDGNNHQNEPQQWVLPNYSGRTGHNVHLAPAVAPTFPGEQLLFFRSTMPGCSGYPNMNLDCLLPQEWVQHFYQEAAPAQSDVALLRFVNPDTGRVLFECKLHKSGYVTVAHTGPHDLVIPPNGYFRFDSWVNQFYTLAPMGNGAGRGGGGGGGGGGGGSKTKAFTIPVLKISEMTNSRFPVPVDQMYTSRSEGIVVQPQNGRATIDGELLGTTLVSPVSVCNFKGNLQAEVPGQHQLYQLQLTNLDGSPIDPTDDTPGPLGCPDFTGLLYGVASQRGPGDATRAHEARIDTGSDTFAPKIGQVRFYSTSSDFETNQPTHFTPIGIYIEGNSSDFNQWQLPRYGGHLANNNHLAPAVSPLFPGEQILFFRSFIPGASGHTNGEMDCLLPQEFVQHFYQEAATARSEVALLRFVNPDTGRALFESKLHKQGFMTIASSGDHPIIMPTNGYFRFEAWVNQFYSLAPVGTGSGR
notes: also called NoV P^-(GII.4)-NoV P^-(GII.9)
For the protein B2, the binding result in series [2] was “binds”.

B3: NoV P domain-RGDCFC (NoV P^+) of Norovirus VA387 (GII.4) (other)
chain: SRTKPFTVPILTVEEMSNSRFPIPLEKLYTGPSSAFVVQPQNGRCTTDGVLLGTTQLSAVNICTFRGDVTHIAGSHDYIMNLASQNWNNYDPTEEIPAPLGTPDFVGKIQGMLTQTTREDGSTRAHKATVSTGSVHFTPKLGSVQYTTDTNNDLQTGQNTKFTPVGVIQDGNNHQNEPQQWVLPNYSGRTGHNVHLAPAVAPTFPGEQLLFFRSTMPGCSGYPNMNLDCLLPQEWVQHFYQEAAPAQSDVALLRFVNPDTGRVLFECKLHKSGYVTVAHTGPHDLVIPPNGYFRFDSWVNQFYTLAPMGNGAGRRRALCDCRGDCFC
notes: Mainly the 24mer P particle (~830 kDa), with a low portion (~5%) of P dimer; also called P-RGDCFC
With B3, in series [2], the binding result is on record as “binds”.

B4: NoV P polypeptide (NoV P^-) of Norovirus VA387 (GII.4) (other)
chain: SRTKPFTVPILTVEEMSNSRFPIPLEKLYTGPSSAFVVQPQNGRCTTDGVLLGTTQLSAVNICTFRGDVTHIAGSHDYIMNLASQNWNNYDPTEEIPAPLGTPDFVGKIQGMLTQTTREDGSTRAHKATVSTGSVHFTPKLGSVQYTTDTNNDLQTGQNTKFTPVGVIQDGNNHQNEPQQWVLPNYSGRTGHNVHLAPAVAPTFPGEQLLFFRSTMPGCSGYPNMNLDCLLPQEWVQHFYQEAAPAQSDVALLRFVNPDTGRVLFECKLHKSGYVTVAHTGPHDLVIPPNGYFRFDSWVNQFYTLAPMGNGAGR
notes: ~34.5 kDa monomer, ~69 kDa dimer; also called free NoV P^- dimer
Take B4: the binding result in series [3] is given as “binds”.

B5: HEV P domain (protruding domain of hepatitis E virus) (other)
chain: TPSPAPSRPFSVLRANDVLWLSLTAAEYDQTTYGSSTNPMYVSDTVTFVNVATGAQAVARSLDWSKVTLDGRPLTTIQQYSKTFYVLPLRGKLSFWEASTTKAGYPYNYNTTASDQILIENAAGHRVAISTYTTSLGAGPTSISAVGVLAPHSALAALEDTVDYPCDCRGDCFC
notes: released from GST-HEV P by thrombin; ~19 kDa monomer, ~38 kDa dimer
As to B5, in series [3], the binding result was “binds”.

B6: NoV P^- (387)-NoV P^- (115) fusion protein (other)
chain: SRTKPFTVPILTVEEMSNSRFPIPLEKLYTGPSSAFVVQPQNGRCTTDGVLLGTTQLSAVNICTFRGDVTHIAGSHDYIMNLASQNWNNYDPTEEIPAPLGTPDFVGKIQGMLTQTTREDGSTRAHKATVSTGSVHFTPKLGSVQYTTDTNNDLQTGQNTKFTPVGVIQDGNNHQNEPQQWVLPNYSGRTGHNVHLAPAVAPTFPGEQLLFFRSTMPGCSGYPNMNLDCLLPQEWVQHFYQEAAPAQSDVALLRFVNPDTGRVLFECKLHKSGYVTVAHTGPHDLVIPPNGYFRFDSWVNQFYTLAPMGNGAGRGGGGGGGGGGGGQKTKPFSVPNLPLNTLSNSRVPSLIRSMMVSRDHGQMVQFQNGRVTLDGQLQGTTPTSASQLCKIRGSVFHANGGNGYTLTELDGSPYHAFESPAPIGFPDLGECDWHMEASPTTQFDTGDVIKQINVKQEAAFAPHLGTIQADGLSDVSVNTNMIAKLGWVSPASDGHRGNVDPWVIPRYGSTLTEAAQLAPPIYPPGFGEAIVFFMSDFPIAHGANGLSVPCTIPQEFVTHFVNEQAPTRGEAALLHYLDPDTHRNLGEFKLYPEGFMTCVPNSSGTGPQTLPINGVFVFVSWVSRFYQLKPVGTAGPARSLGI
Take B6: the binding result in series [4] was “binds”.

B7: NoV P^--VP8* (C-end) protein (other)
chain: SRTKPFTVPILTVEEMSNSRFPIPLEKLYTGPSSAFVVQPQNGRCTTDGVLLGTTQLSAVNICTFRGDVTHIAGSHDYIMNLASQNWNNYDPTEEIPAPLGTPDFVGKIQGMLTQTTREDGSTRAHKATVSTGSVHFTPKLGSVQYTTDTNNDLQTGQNTKFTPVGVIQDGNNHQNEPQQWVLPNYSGRTGHNVHLAPAVAPTFPGEQLLFFRSTMPGCSGYPNMNLDCLLPQEWVQHFYQEAAPAQSDVALLRFVNPDTGRVLFECKLHKSGYVTVAHTGPHDLVIPPNGYFRFDSWVNQFYTLAPMGNGAGRGGGGGGGGGGGGLDGPYQPTTFTPPTDYWILINSNTNGVVYESTNNSDFWTAVIAVEPHVNPVDRQYNVFGENKQFNVRNDSDKWKFLEMFRGSSQNDFYNRRTLTSDTRLVGILKYGGRIWTFHGETPRATTDSSNTANLNGISITIHSEFYIIPRSQESKCNEYINNGL
notes: Thrombin-cleaved product; ~52 kDa monomer, ~100 kDa dimer; also called free NoV P^--VP8* dimer
As to B7, the binding result in series [5] is given as “binds”.
